Data published in patent US20220023406A1.

Target: HB-EGF receptor for diptheria toxin/CRM197 (heparin-binding epidermal growth factor-like precursor) on OV90 ovarian cancer cells (UniProt Q99075)
Assay: cell-based or functional assay

Sequence of UniProt Q99075 (Q99075 63-148 limits assumed): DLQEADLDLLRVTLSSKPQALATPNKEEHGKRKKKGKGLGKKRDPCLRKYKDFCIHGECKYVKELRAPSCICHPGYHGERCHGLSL

Substance “CRM197-Alexa488 (from UniProt P00587 26-560)” has a labelling of OV90 tumor cells with CRM197-Alexa488 after 24 hours (flow cytometry, 10 µg/mL, without trypan blue) of 98.2%, a percentage of CRM197-Alexa488 uptake by OV90 tumor cells after 4 hours (flow cytometry, 10 µg/mL, without trypan blue) of 82% and a percentage of OV90 cells with intracellular CRM197-Alexa488 after 4 hours (flow cytometry, with trypan blue quenching) of 72.7%. For the same substance, the percentage of OV90 cells with intracellular CRM197-Alexa488 after 24 hours (flow cytometry, with trypan blue quenching) was 97.6%.
